# Data reported in patent US20160177307.
# Experiments:
# [1] = test system: T1, VEGF-121 (Homo sapiens), P15692-9; assay: filter
# T1 sequence: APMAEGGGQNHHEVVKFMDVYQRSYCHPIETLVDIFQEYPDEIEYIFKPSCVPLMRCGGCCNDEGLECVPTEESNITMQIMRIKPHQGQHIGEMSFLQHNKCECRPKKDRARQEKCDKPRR
# [2] = biological target: PDGF-BB (platelet-derived growth factor BB) (Homo sapiens) (UniProt P01127); assay: filter
# [3] = all Z are BndU, rest DNA, SB18T, 37 C
# PDGF-BB (platelet-derived growth factor BB) (Homo sapiens), sequence (P01127 82-190): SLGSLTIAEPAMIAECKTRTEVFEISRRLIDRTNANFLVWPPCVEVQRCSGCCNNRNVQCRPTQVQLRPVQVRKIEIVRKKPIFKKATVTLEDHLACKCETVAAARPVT
sequence,measurement,setting,value
CCGTTCAAGTGCTTGTAGGATTTAAATGG [4867-31_158],Kd,"[1]; NapdU at P, 2'-OMe 14",1.7 nM
CCCTCCATCAGCCGTTAAGTGCTTGTAGGATTTAAATGGAATTGGAGGA [4867-15_40],Kd,"[1]; P=Nap-dU, C3 spacer at 17",0.17 nM
CCGTTCAAGTGCTTGTAGGATTTAAATGG [4867-31_155],Kd,"[1]; NapdU at P, 2'-OMe 5",3.3 nM
CCCTCCATCAGCCGTTCAGTGCTTGTAGGATTTAAATGGAATTGGAGGA [4867-15_41],Kd,"[1]; P=Nap-dU, C3 spacer at 18",13 nM
CGACAGCATGTATGCACATCTCCGTTCAAGTGCTTGTAGGATTTAAATGG [5169-4_101],Kd,"[1]; PDGF-4Heg-VEGF, NapdU, 2'-OMe",0.13 nM
CCCTCCATCAGCCGTTCAAGTGCTTGTAGGATTTAAATGGAATTGAGGA [4867-15_69],Kd,"[1]; P=Nap-dU, C3 spacer at 46",0.77 nM
CCGTTCAAGTGCTTGTAGGATTTAAATGG [4867-31_476],Kd,"[1]; as 4867-31_192, 2'-OMe 1, PS 26, printed 2.1-11",0.021 nM
CCGTTCAAGTGCTTTTAGGATTTAAATGGA [4867-31_150],Kd,[1]; P=Nap-dU,0.24 nM
CCGTTCAAGTGCTTGTAGGATTTAAATGG [4867-31_475],Kd,"[1]; as 4867-31_192, 2'-OMe 1, PS 25",0.026 nM
TTACGTTACCGCGTTTATAGCGCCGTTCAAGTGCTTGTAGGATTTAAATGG [4149-8_401],Kd,"[1]; PDGF_379-3Heg-VEGF_192, NapdU, BndU, MBndU, 2'-OMe, 5' amino linker",0.027 nM
CCCCCATCAGCCGTTCAAGTGCTTGTAGGATTTAAATGGAATTGGAGGA [4867-15_27],Kd,"[1]; P=Nap-dU, C3 spacer at 4",0.4 nM
AGCCGTTCAAGTGCTTGTAGGATTTAAATGGA [4867-31_91],Kd,"[1]; P=Nap-dU, 2'-OMe A27",0.35 nM
CCGTTCAAGTGCTTGTAGGATTTAAATGG [4867-31_428],Kd,"[1]; as 4867-31_192, PS 3' of 26, 3' inverted dT",0.0084 nM
CCGTTTAAGTGCTTGTAGGATTTAAATGGA [4867-31_147],Kd,[1]; P=Nap-dU,3.28 nM
CCGTTCAAGTGCTTGTAGGATTTAAATGG [4867-31_424],Kd,"[1]; as 4867-31_192, PS 3' of 21, 3' inverted dT",0.011 nM
CCGTTCAAGTGCTTGTAGGATTTAAATGG [4867-31_477],Kd,"[1]; as 4867-31_192, 2'-OMe 1, PS 25,26",0.024 nM
AGCCGTTAAGTGCTTGTAGGATTTAAATGGA [4867-31_97],Kd,"[1]; P=Nap-dU, C3 spacer at 8",7.3 nM
CCGTTCAAGTGCTTGTAGGATTTAAATGGCGACAGCATGTATGCACATCT [5169-4_94],Kd,"[1]; VEGF-5Heg-PDGF, NapdU, 2'-OMe",0.066 nM
CCGTTCAAGTGCTTGTAAGATTTAAATGGA [4867-31_151],Kd,[1]; P=Nap-dU,0.16 nM
CCGTTCAAGTGCTTGTACGATTTAAATGGA [4867-31_152],Kd,[1]; P=Nap-dU,0.32 nM
CCCTCCATAGCCGTTCAAGTGCTTGTAGGATTTAAATGGAATTGGAGGA [4867-15_32],Kd,"[1]; P=Nap-dU, C3 spacer at 9",0.079 nM
CCGTTCAAGTGCTTGTAGGATTTAAATGG [4867-31_162],Kd,"[1]; 2'-OMe-NapU at 23, other P are NapdU, target taken as VEGF-121",8.9 nM
AGCCGTTCAAGTGCTTGTAGGATTTAAATGGA [4867-31_72],Kd,"[1]; P=Nap-dU, 2'-OMe C8 (inferred, superscript lost)",0.21 nM
CCGTTCAAGTGCTTGTAGGATTTAAATGG [4867-31_413],Kd,"[1]; as 4867-31_192, PS 3' of 5, 3' inverted dT",0.015 nM
CCCTCATCAGCCGTTCAAGTGCTTGTAGGATTTAAATGGAATTGGAGGA [4867-15_29],Kd,"[1]; P=Nap-dU, C3 spacer at 6",0.2 nM
CCCTCCATCAGCGTTCAAGTGCTTGTAGGATTTAAATGGAATTGGAGGA [4867-15_35],Kd,"[1]; P=Nap-dU, C3 spacer at 12",3.4 nM
CCGTTCAAGTGCTTGTAGGATTTAAATGG [4867-31_445],Kd,"[1]; as 4867-31_192, PS 3' of 29, 3' inverted dT",0.01 nM
CCGTTCAAGTGCTTTAGATTTAAATGG [4867-31_184],Kd,"[1]; NapdU at P, C3 spacer 15,18, 2'-OMe 9,17",0.084 nM
CCGTTCAAGTGCTTGTAGGATTTAAATGG [4867-31_157],Kd,"[1]; NapdU at P, 2'-OMe 13",1.5 nM
CCGTTCAAGTGCTTGTAGGATTTAAATGG [4867-31_414],Kd,"[1]; as 4867-31_192, PS 3' of 7, 3' inverted dT",0.015 nM
AGCCGTTCAAGTGCTTGTAGGATTTAAATGGA [4867-31_86],Kd,"[1]; P=Nap-dU, 2'-OMe A22",6.21 nM
CCTCCATCAGCCGTTCAAGTGCTTGTAGGATTTAAATGGAATTGGAGGA [4867-15_24],Kd,"[1]; P=Nap-dU, C3 spacer at 1",0.11 nM
CCGTTCAAGTGCTTTAGGATTTAAATGG [4867-31_189],Kd,"[1]; NapdU at P, C3 spacer 15, 2'-OMe 9,17,18,25,28,29 as printed",0.9 nM
AGCCGTTCAAGTGCTTGTAGGATTTAAATGGA [4867-31_78],Kd,"[1]; P=Nap-dU, 2'-OMe C14",0.24 nM
CCTCCATCAGCCGTTCAAGTGCTTGTAGGATTTAAATGGAATTGGAGGA [4867-15_26],Kd,"[1]; P=Nap-dU, C3 spacer at 3",0.2 nM
CCCTCCATCAGCCGTTCAAGTGCTTGTAGGATTTAAATGGAATGGAGGA [4867-15_66],Kd,"[1]; P=Nap-dU, C3 spacer at 43",0.11 nM
AGCCGTTCAAGTGCTTGTAGGATTTAAATGGA [4867-31_83],Kd,"[1]; P=Nap-dU, 2'-OMe A19",0.1 nM
CCGTTCAAGTGCTTGTAGGATTTAAATGG [4867-31_438],Kd,"[1]; as 4867-31_192, PS 3' of 6, 3' inverted dT",0.013 nM
CCGTTCAAGTGCTTGTAGGATTTAAATGG [4867-31_443],Kd,"[1]; as 4867-31_192, PS 3' of 18, 3' inverted dT",0.0085 nM
CCGTTCAAGTGCTTGTAGGATTTAAATGG [4867-31_480],Kd,"[1]; as 4867-31_192, 2'-OMe 1, PS 24,25",0.028 nM
CCCTCCATCAGCCGTTCAAGTGCTTGTGGATTTAAATGGAATTGGAGGA [4867-15_51],Kd,"[1]; P=Nap-dU, C3 spacer at 28",1.6 nM
CGACAGCATGTATGCACATCT [5169-4_157],Kd,"[2]; as 5169-4_146, PS 12, 3' inverted dT",0.018 nM
TTACGTTACCGCGTTTATAGCG [4149-8_456],Kd,"[2]; BndU, NapdU 16, 2'-OMe 3,7,12,18,19,21,24, PS 8,9,15,16,17, Heg 5, C3 11",0.027 nM
CGACAGCATGTATGCACATCT [5169-4_110],Kd,"[2]; NapdU at P, 2'-OMe 1,14,16",0.005 nM
CTTACGACTACGTTACACGCGTTTATAGCGTCAACCCGA [4149-8_26],Kd,[2]; [3],0.08 nM
ATCTCTTACGACTACGTTACACGCGTTTATAGCGTCAACCCG [4149-8_7],Kd,[2]; [3],0.02 nM
TTACGTTACCGCGTTTATAGCG [4149-8_453],Kd,"[2]; BndU, NapdU 16, 2'-OMe 3,7,12,13,18,19,21,24, PS 9,15,16,17, Heg 5, C3 11",0.002 nM
CGACAGCATGTATGCACATCTAGAGGCTACCCAGTG [5169-4_16],Kd,[2]; NapdU at P,0.016 nM
CGACAGCATGTATGCACATCT [5169-4_80],Kd,"[2]; NapdU at P, 2'-OMe 7,16,18",0.0061 nM
TTACGTTACACGCGTTTATAGCG [4149-8_309],Kd,"[2]; Bn-dU, 2'-OMe Bn-U16, Heg5, 2'-OMe A3, A11, A21, G24",> 10 nM
CAGCATGTATGCACATCTAGAGGCTACCCAGTGAATGAGGA [5169-4_6],Kd,"[2]; all P are NapdU, rest DNA, SB18T, 37 C",67 nM
TTACGTTACCGCGTTTATAGCG [4149-8_431],Kd,"[2]; as 4149-8_379, NapdU 16, PS 9,15,17",0.043 nM
TTACGACTACGTTACACGCGTTTA [4149-8_43],Kd,[2]; Bn-dU,> 10 nM
TTACGTTACACGCGTTTATAGCG [4149-8_348],Kd,"[2]; Bn-dU, Pe-dU17, 2'-F A9, Heg, 2'-OMe",> 10 nM
CGACAGCATGTATGCACATCT [5169-4_178],Kd,"[2]; as 5169-4_146, PS 6, 3' inverted dT",0.011 nM
TTACGTTACACGCGTTTATAGCG [4149-8_178],Kd,"[2]; Bn-dU, Trp-dU8, Heg5, 2'-OMe A3, A11, A21, G24",> 10 nM
CGACAGCATGTATGCACATCT [5169-4_34],Kd,"[2]; NapdU at P, 2'-OMe 4",0.033 nM
TTACGTTACACGCGTTTATAGCG [4149-8_127],Kd,"[2]; Bn-dU, Nap-dU, Heg, 2'-OMe U as printed",> 10 nM
CGACAGCATGTATGCACATCT [5169-4_109],Kd,"[2]; NapdU at P, 2'-OMe 1,6,16",0.011 nM
CGACAGCATGTATGCACATCTAGAGGCTACCCAGTGA [5169-4_15],Kd,[2]; NapdU at P,0.019 nM
CGACAGCATGTATGCACATCT [5169-4_118],Kd,"[2]; NapdU at P, 2'-OMe 2,4,17",0.56 nM
TTACGTTACCGCGTTTATAGCG [4149-8_426],Kd,"[2]; as 4149-8_379 plus 2'-OMe A9,G13 or G15 as printed in SEQ:409",42 nM
CGACAGCATGTATGCACATCT [5169-4_151],Kd,"[2]; as 5169-4_146 plus PS 3' of A3, 3'-idT",0.006 nM
TTACGTTACACGCGTTTATAGCGNT [4149-8_340],Kd,"[2]; 4149-8_260 3'-3' dimer, Heg, doubler",0.0189 nM
CGACAGCATGTATGCACATCT [5169-4_107],Kd,"[2]; NapdU at P, 2'-OMe 1,6,18",0.013 nM
TTACGACTACGTTACACGCGTTTATAGCGT [4149-8_37],Kd,[2]; [3],0.04 nM
CGACAGCATGTATGCACATCT [5169-4_86],Kd,"[2]; NapdU at P, 2'-OMe 1,2,4,6,7,11,14-18,20,21",0.064 nM
TTACGTTACCGCGTTTATAGCG [4149-8_432],Kd,"[2]; as 4149-8_379, PS 9,15,17",0.029 nM
TTACGTTACCGCGTTTATAGCG [4149-8_454],Kd,"[2]; BndU at 1,2,8,17,20, NapdU at 16, Heg 5, C3 11, 2'-OMe at 3,7,12,18,19,21,24, PS 3' of 9,15,16,17, 3'-idT",0.0013 nM
ACTACGTTACACGCGTTTATAGCGTCAACCCGAGTGAACA [4149-8_15],Kd,[2]; Bn-dU,> 10 nM
CGACAGCATGTATGCCATCT [5169-4_74],Kd,"[2]; NapdU at P, C3 spacer at 16",0.37 nM
CGACAGCATGTATGCACATCT [5169-4_181],Kd,"[2]; as 5169-4_146, PS 18, 3' inverted dT",0.021 nM
TTACGTTACACGCGTTTATAGCG [4149-8_310],Kd,"[2]; Bn-dU, 2'-OMe Bn-U17, Heg5, 2'-OMe A3, A11, A21, G24",> 10 nM
CGACAGCATGTATGCACTCT [5169-4_76],Kd,"[2]; C3 spacer at 18, NapdU at 9,11,13,19,21, C3 spacer walk",1.3 nM
ATCTCTTACGACTACGTTACACGCGTTTATAGCGTCAA [4149-8_9],Kd,[2]; [3],0.03 nM
CACAGCATGTATGCACATCT [5169-4_60],Kd,"[2]; C3 spacer at 2, NapdU at 9,11,13,19,21, C3 spacer walk",27 nM
